Measured values: the RNAGym collection of RNA variant scans (doi:10.7554/elife.80360)

B1: Hairpin Ribozyme (parent)
chain: GUCCUCUUUCACGUGCGCGUGAAAGAGAGAAGUGAACCAGAGAAACACACGUUGUGGUAUAUUACCUGGUA

Variants of: B1
Experiment: self-cleavage, relative activity (ratio to wild type); higher = more cleavage; co-transcriptional

Variant	self-cleavage
G32A C38G	0.1
A31C C50G	0.0635
U33A C38U	0.0932
A31G U60C	0.836
U33A G56U	0.156
U33A G56A	0.239
G32C G40U	0.086
A30G U58C	0.0836
A31G A71U	0.396
A31U A49G	0.121
A31U A49C	0.139
A30U A39U	0.0553
A30U A39C	0.111
A30U A39G	0.0918
A31C C46G	0.0917
A31C C46A	0.0889
A31C C46U	0.187
G32C A61G	0.136
A31U U53A	0.026
A31U U53G	0.122
A30G C46U	0.236
U33A C48U	0.0718
U33A C48G	0.123
A30U U60A	0.346

Variant	self-cleavage
G32A U33C	0.119
G32C A36U	0.136
G32C A36G	0.0754
A31G U53G	0.495
A30U G51A	0.104
A31G U62A	0.127
U33A C65U	0.238
A31U U58C	0
A31C U67G	0.0719
A31G U33C	0.0729
A31G U33A	0.165
A30U A71U	0.101
A30U A71C	0.299
A31U G42C	0.0816
A31G U70A	0.509
G32U U53A	0.126
A31G G32A	0.0999
A31G G32C	0.0299
A31U U63A	0.0279
A31U U63G	0.0484
G32A G57C	0.117
A31G G34A	1.12
A31C G57U	0.0476
A31C G57A	0.107

Variant	self-cleavage
A31C G57C	0.189
A30U A36U	0.0371
A31U C37G	0.237
A31G C50G	0.176
A31G C50U	0.266
G32A G40C	0.156
G32U G54U	0.0884
G32U G54A	0.105
A30U G69A	0.146
A30U G69U	0.149
G32A A39U	0.108
A31C U63A	0.162
A31C U62C	0.0677
U33A A45U	0.2
U33A A36U	0.0862
G32C U55C	0.0178
U33A A43G	0.169
G32U U63C	0.268
G32U U63G	0.113
A30U G32C	0.132
A31C A49G	0.0512
A31U C48A	0.166
A30U U67C	0.0825
A30U U67A	0.0771

Variant	self-cleavage
A30U U67G	0.176
G32A A41U	0.396
A31G A59C	0.173
G32U A49U	0.0712
A30U C65U	0.0165
A30U C65G	0.228
G32U C38A	0.0741
A31U G40A	0.117
A31U G34U	0.167
G32C G69A	0.149
G32U A61G	0.0951
A31C A71C	0.202
A31C A71G	0.212
A30G C50A	0.0824
A30G C50U	0.0809
G32C G54A	0.0613
G32C G54U	0.0594
A31C A47G	0.108
A30U A31C	0.288
G32C A45G	0.0948
G32C A45C	0.145
G32U G68C	0.0784
G32C U52G	0.125
G32U U70C	0.138

Variant	self-cleavage
G32U U70G	0.108
A30U A59G	0.187
A30U A59U	0.0496
G32C U67C	0.105
G32C U62C	0.2
G32C U58C	0.0937
G32U A39U	0.125
A30U G42A	0.11
U33A A49U	0.194
G32A U60A	0.191
A31C G54A	0.152
A30U U58A	0.115
A30U G57C	0.0918
A31G G54C	0.276
G32C C37G	0.15
A31G A64G	0.284
A31G A64C	0.0777
A31C A59U	0.108
G32C A64G	0.0936
G32C A64C	0.183
G32C A64U	0.159
A31C A64U	0.11
A31C A61U	0.0706
A31C A61C	0.194

Variant	self-cleavage
G32U G34U	0.126
A31U A41C	0.154
A30U C48G	0.118
A30U C48A	0.209
A31U U70A	0.0877
G32A C46U	0.148
G32A C46G	0.103
A31C U58C	0.247
A31C U58A	0.171
A31C U58G	0.131
G32A A49U	0.0556
G32A A49C	0.0198
A31G C37G	0.162
A31G C37A	0.158
G32U A43G	0.0636
G32U A43C	0.0806
A30G G68U	0.169
G32C U70A	0.0808
G32C C46U	0.109
A31U G68A	0.157
G32U A64C	0.258
G32U A64G	0.162
G32U A64U	0.126
A31G U67C	0.118

Variant	self-cleavage
A31G G40C	0.247
A31G G40U	0.168
A31G G40A	0.179
G32C G56A	0.13
G32C G56C	0.149
U33A C37A	0.112
A31C G32C	0.228
G32C A39C	0.135
G32A G34A	0.07
A31U A43C	0.169
U33A	0.147
G32A C48A	0.128
G32C C66A	0.0957
G32C C48U	0.169
G32U A36C	0.1
U33A G68A	0.161
U33A G68C	0.138
U33A G42U	0.181
U33A G42A	0.168
A31C U55G	0.1
G32C G57U	0.072
G32C G57A	0.0977
G32U A59U	0.0402
G32U A59C	0.0899

Variant	self-cleavage
A30U G68A	0.0299
A30U G68C	0.118
A30U G68U	0.207
G32U C50A	0.0903
G32A A64C	0.14
G32C G68U	0.135
G32C G68C	0.112
A31U G54C	0.119
G32U C48A	0.0918
G32U C48U	0.15
G32A G69C	0.163
A31C G56U	0.182
A31C G56C	0.115
A31C U60C	0.188
A31U G69A	0.182
U33A C50U	0.105
U33A C50A	0.18
U33A G34A	0.0987
U33A G34C	0.777
A30U C50G	0.157
A30U A47C	0.0639
A30U U70C	0.123
A30U U70A	0.0595
A30U A49C	0.111

Variant	self-cleavage
G32A A59U	0.167
A31G A36C	0.363
A31G A36U	0.306
A31C C66U	0.225
G32U A44G	0.0996
G32U C66G	0.19
A31U G51C	0.15
G32C U53G	0.0828
G32C U53A	0.185
A31U A45G	0.0267
A31U A45U	0.131
G32C G34C	0.101
G32C U33C	0.0618
G32C U33G	0.12
A31U A59C	0.0285
A31U A59U	0.201
A31G A44G	0.208
A31G A44U	0.205
G32A U70C	0.0825
G32A C65A	0.0853
G32A C65G	0.102
G32U U58C	0.116
A30U A43G	0.108
A30U G56U	0.149

Variant	self-cleavage
A30U G56A	0.127
A30U A41G	0.106
A31G G51U	0.599
G32U U33G	0.0653
A31G C48A	0.164
U33A A64G	0.164
A31G U52G	0.4
A31G U52C	0.508
A31G U52A	0.764
G32C A35C	0
G32A A61U	0.154
G32C C50U	0.0935
G32A A44U	0.152
G32A A44C	0.0922
G32A A44G	0.143
U33A G51U	0.129
U33A G51A	0.177
A31U A36G	0.151
A31U A36C	0.197
A31C U70G	0.0868
U33A A61G	0.0674
U33A A61U	0.167
A31C G51A	0.179
A30G G51C	0.199

Variant	self-cleavage
A31G A45C	0.241
A31G A45U	0.236
A31C A36C	0.123
A31C A36G	0.124
G32U U67C	0.0935
A31G A35U	0.378
A31G A35G	0.662
A31U G57C	0.155
A31U G57A	0.169
A31U G57U	0.216
A30G G40A	0.0732
A31U A35U	0.162
A31U A35C	0.185
A31U C66A	0.3
A31U C66U	0.0749
A31C G69A	0.0915
U33A A44U	0.141
U33A C46G	0.176
U33A C46A	0.122
A31G A39C	0.253
A31G A39U	0.105
A30G U70A	0.0747
A30G U70C	0.0846
A30G U70G	0.262

Variant	self-cleavage
G32A U67G	0.0549
A30U A64U	0.13
A30G U62G	0.112
A30U U63A	0.13
A31U A39G	0.0984
U33A A59G	0.106
U33A G40C	0.0171
A30G C37A	0.192
A31G G56U	0.106
A31G G56C	0.164
A31U A64G	0.0407
G32U C37A	0.0811
G32U C37U	0.161
A30G G57A	0.0803
A30G G57U	0.0464
A31U C38G	0
G32C A71C	0.215
G32C A71U	0.157
G32C A71G	0.238
A30G C38U	0.21
A31C A39C	0.173
G32U G56C	0.152
A31U U55G	0.089
G32U A45C	0.153

Variant	self-cleavage
G32A A43G	0.141
G32A A43C	0.0569
A31U U62C	0.147
A31U U62G	0
G32A U63A	0.132
A31G U55A	0.105
G32U G57C	0.129
G32U G57A	0.139
A30U U33G	0.138
A31U U60A	0.0868
G32U G69A	0.115
A30U G54U	0.165
A30U G54A	0.137
G32U U60C	0.0374
G32U U60A	0.17
A31C C65G	0.116
A31G A49U	0.11
U33A A35C	0.0785
A30U G40C	0.13
G32C C65G	0.0614
A31G A61C	0.16
A31G A61U	0.159
A31G G57U	0.23
A30U A44U	0.16

Variant	self-cleavage
A30U A61U	0.0778
A30U A61C	0.069
G32A A47C	0.143
A30G G54C	0.178
A31U A47G	0.101
A30U U53C	0.041
A31G C65U	0.252
A31G C38G	0.0773
A31G C38U	0.272
A31C G40C	0.0931
G32U G40A	0.122
U33A U52C	0.122
U33A U52G	0.111
A30G U60C	0.252
A30G C65G	0.204
A30G C65A	0.148
A31G G69U	0.258
A31G G69A	0.178
A30G U53G	0.157
G32A U53A	0.0993
A31C U33G	0.0823
U33A A71G	0.178
